Data reported in the supplement of paper PMC10567573.

B1: TPPP (parent)
chain: LCKDCQVIDGRNVTVTDVDIVFSK

Variants of: B1
Test: protein stability index of a GFP-peptide fusion (GPS, HEK-293T) (PSI 1-6); higher = more stable
Settings: c terminus: a fixed tail appended
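Further: lentivirally expressed fusions sorted by FACS into six bins by GFP to DsRed ratio, PSI derived from sequencing read proportions per bin multiplied by bin number.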

Protein stability index, by site and new letter:
I20: N 3.5 | A 3.04 | R 3.22 | L 3.02 | C 2.68 | S 2.55 | K 3.27 | F 2.38 | H 2.91 | E 3.92 | W 1.98 | Y 2.63 | G 3.35 | T 3.06 | Q 3.79 | P 3.14
C2: K 3.07 | E 4.36 | F 2.48 | D 4.08 | N 3.59 | T 3.61 | I 2.93 | A 3.56 | H 3.42 | R 2.79 | L 3.09 | S 3.54 | M 3.24 | P 4.04 | W 2.56
D19: N 2.13 | V 1.95 | T 1.42 | S 2.39 | Q 1.65 | M 2.28 | H 2.97 | E 1.79 | K 1.39 | L 2.26 | I 2.09 | Y 1.47 | R 1.36 | W 2.96 | G 2.08 | C 2.4 | P 2.56 | F 2.45
V21: R 2.46 | H 2.65 | F 1.8 | M 1.96 | P 2.66 | I 1.87 | A 3.47 | Y 2.08 | T 3.2 | E 3.88 | K 3.22 | Q 2.15 | S 3.34
K24: H 2.48 | L 2.99 | T 1.97 | D 2.77 | P 2.62 | A 2.24 | C 2.02 | S 2.44 | Q 2.35
D9: Q 2.76 | R 2.53 | N 2 | P 2.65 | G 2.1 | I 1.66 | M 2.19 | T 2.99 | E 2.66 | F 1.9 | L 2.48 | K 2.48 | H 2.07 | A 1.96 | V 1.21 | S 2.45 | C 2.05
S23: A 2.55 | G 3.13 | D 2.81 | R 2.35 | T 2.23 | H 3.26 | K 3.58 | P 2.98 | E 3.28 | Y 1.72 | F 1.58
R11: L 1.68 | F 1.91 | S 2.58 | Q 2.35 | I 1.68 | W 1.78 | E 2.9 | K 2.71 | G 2.56 | N 2.85 | C 2.35 | Y 1.55 | D 3.54 | A 2.54
I8: Q 3.14 | Y 2 | V 3.47 | R 3.2 | D 3.97 | F 2.42 | H 2.43 | P 3.19 | S 2.79 | E 3.21 | C 2.3 | T 3.12 | M 2.81 | L 2.24
L1: N 3.32 | P 2.85 | V 2.71 | Y 2.08 | D 4.05 | Q 3.08 | H 2.7 | E 3.41 | F 2.25 | W 1.89 | T 2.73 | S 2.91 | C 1.85
V18: A 2.9 | D 3.58 | K 2.77 | M 1.92 | S 3.12 | H 2.91 | G 3.11 | Q 3.16 | E 3.52 | I 2.44 | N 3.79 | T 3.69 | F 2.54 | R 3.06 | L 2.4 | W 2.23
T14: E 3.2 | F 1.91 | K 2.48 | N 2.73 | W 2.52 | D 2.68 | I 2.76 | G 3.05 | R 2.4 | C 2.41 | P 2.75 | V 1.72 | M 1.6 | Q 2.7
V7: G 2.59 | S 3.05 | P 2.96 | H 2.44 | E 2.94 | Y 1.53 | D 3.64 | F 2.33 | Q 2.46 | M 2.31 | T 2.87 | W 3.61 | C 2.4 | K 2.46 | L 2.2
D17: Y 2.97 | Q 1.77 | K 1.77 | P 2.21 | T 1.69 | W 2.1 | R 2.92 | H 2.48 | S 1.28 | I 3.91 | N 1.45 | A 2.33 | G 2.14
F22: T 3.48 | Y 2.84 | V 2.53 | L 2.08 | G 4.09 | C 3.38 | H 4.43 | W 2.3 | I 2.09 | P 3.47 | N 3.66 | S 2.78 | M 3.12 | E 4.25 | Q 3.59
C5: P 4.03 | W 2.28 | E 4.32 | A 3.62 | R 3.38 | Q 3.75 | M 2.77 | V 3.36 | Y 2.94 | S 4.01 | K 3.84 | H 3.82 | L 3.16 | D 4.39 | I 2.6 | F 2.54
V15: N 2.95 | Y 2.01 | A 2.6 | T 2.96 | D 3.04 | H 2.92 | K 2.89 | I 2.02 | E 3.64 | R 3.44 | P 4.11 | M 1.97 | Q 2.92 | G 2.65
Q6: V 2.14 | S 2.61 | N 2.49 | E 2.9 | G 2.78 | R 2.8 | M 2.66 | W 2.17 | H 2.73 | F 1.74
G10: H 2.8 | N 2.39 | P 2.63 | Q 2.47 | C 2.14 | I 1.3 | K 2.88 | M 1.54 | S 2.74 | W 2.33 | V 2.34 | A 2.31 | L 1.61
V13: Y 2.37 | G 2.79 | A 2.75 | L 2.48 | D 3.04 | W 3.13 | N 2.6 | S 3.12 | P 3.08 | F 2.08 | K 2.36 | M 2.54 | H 2.32 | R 3.03 | C 2.16 | Q 2.49
K3: N 2.95 | S 2.17 | D 3.3 | I 1.05 | G 3.34 | L 1.92 | C 1.89 | A 2.51 | H 2.52 | Q 2.18 | P 3.26 | M 1.78 | Y 1.91
T16: P 2.23 | L 1.72 | E 3.01 | H 2.44 | W 1.24 | D 3.37 | K 3.06 | A 2.23 | C 1.72
D4: L 1.83 | H 1.57 | Y 1.81 | Q 1.97 | E 2.71 | P 2.25 | N 1.69 | G 2.42 | I 2.02 | R 2.73 | A 1.76 | M 2.1 | T 1.77 | V 1.82 | S 1.71
N12: S 1.98 | H 2.65 | L 2.57 | R 2.23 | P 2.4 | A 2.57 | I 1.53 | F 2.48 | M 1.73 | V 1.71 | T 2.11 | C 2.17 | D 2.68 | K 2.52 | Q 2.3
